Measurements as given in publication PMC3706957, “Ion Mobility Spectrometry-Mass Spectrometry of Intrinsically Unfolded Proteins: Trying to Put Order into Disorder” (Current Analytical Chemistry, 2013).
Bridge positions count the residues as written; N and C are the ends. Square brackets hold non-standard residues; d marks the D form. Ends that are not written are not given here. Gla = N[C@@H](CC(C(=O)O)C(=O)O)C(=O)O

B1: bovine osteocalcin (natural protein, UniProt P02820 52-100, looked up)
chain: YLDHWLGAPAPYPDPL[Gla]PKR[Gla]VC[Gla]LNPDCDELADHIGFQEAYRRFYGPV
modifications: disulfide 23-29
notes: also called apo-osteocalcin; apo-OST; source: purified from bovine bone tissue (EDTA extraction, size exclusion and ion exchange chromatography)

Columns and labels:
[1] = biological target: osteocalcin_(17-49) proteolysis fragment (bovine); experiment: native MS; ESI-IMS-MS of the limited proteolysis mixture of full length calcium-bound holo-osteocalcin at neutral pH (enzyme:substrate 1:300, ammonium acetate); dimer seen as 6+ ions in the drift time distribution of the 3+ ions
[2] = biological target: the molecule itself; experiment: native MS; ESI-IMS-MS (nanoESI, travelling wave ion mobility), pH 7, 20 mM ammonium acetate (methods) or 1:1 5 mM ammonium acetate: ammonium formate; protein alone and with Ca^2+, Cu^+ or Zn^2+ salt at protein:salt 1:10; dimer told apart from monomer by drift time and isotope pattern; dimer peak increased significantly with metal ions

Row | Molecule | stoichiometry N [1] | stoichiometry N [2]
1 | osteocalcin_(17-49) proteolysis fragment (domain or fragment) | 2 | –
2 | B1 | – | 2
